Test results reported in US20240294611A1 (University of Texas, published 2024).
Values joined by “and” are separate entries in the source; they are usually repeats but may differ in a detail not shown here. Equal values may be shown once. Read-outs that look alike come from different tables or passages of the source.

Columns and labels:
[1] = biological target: T1, SARS-CoV-2 HexaPro S2 (isolated S2 domain) (SARS-CoV-2, UniProt P0DTC2 697-1208); assay: BLI equilibrium, IgG on anti-Fc tips
T1 construct: range 697-1208

[2] = biological target: T2, aglycosylated HexaPro (HexaPro treated with Endo H) (SARS-CoV-2, UniProt P0DTC2 14-1208); assay: BLI equilibrium, IgG on anti-Fc tips
[3] = biological target: T2, aglycosylated HexaPro (HexaPro treated …); assay: BLI equilibrium, IgG on anti-Fc sensor
[4] = biological target: T1, SARS-CoV-2 HexaPro S2 (isolated S2 …); assay: BLI; column head says Fab Kd, footnote says immobilized IgG
HexaPro E1031R = HexaPro E1031R (SARS-CoV-2, UniProt P0DTC2 14-1208)
[5] = biological target: T3, wild-type SARS-CoV-2 spike without stabilizing modifications (on cells or pseudovirus) (SARS-CoV-2, UniProt P0DTC2 14-1273); assay: cell-based or functional assay
[6] = biological target: T4, SARS-CoV-2 D614G spike without stabilizing modifications (on cells or pseudovirus) (SARS-CoV-2, UniProt P0DTC2 14-1273); assay: cell-based or functional assay
[7] = biological target: T3, wild-type SARS-CoV-2 spike without …; assay: cell-based or functional assay; remark: listed apart in the source
[8] = biological target: T4, SARS-CoV-2 D614G spike without …; assay: cell-based or functional assay; remark: listed apart in the source
[9] = biological target: SARS-CoV-2 B.1.1.7 (variant Alpha) spike on pseudovirus (SARS-CoV-2, UniProt P0DTC2 14-1273); assay: cell-based or functional assay
[10] = biological target: T1, SARS-CoV-2 HexaPro S2 (isolated S2 …)
[11] = biological target: T1, SARS-CoV-2 HexaPro S2 (isolated S2 …); remark: listed apart in the source
[12] = biological target: T1, SARS-CoV-2 HexaPro S2 (isolated S2 …); remark: listed apart in the source
[13] = biological target: T1, SARS-CoV-2 HexaPro S2 (isolated S2 …); remark: listed apart in the source
[14] = biological target: T1, SARS-CoV-2 HexaPro S2 (isolated S2 …); remark: listed apart in the source
[15] = biological target: soluble SARS-CoV-2 spike protein variant 4PDS (SARS-CoV-2, UniProt P0DTC2 14-1208)

B1: 4A5 full-length antibody (mouse variable region-human IgG1 constant region chimera) (antibody, V domains shown)
VH: QVQLQQSGAELAKPGASVKMSCKASGYTFTSYWMHWVKQRPGQGLEWVGMIDPSNSETRLNQKFKDKATLNVDKSSNTAYMQLSSLTSEDSAVYYCARLGRYWGQGTTLTVSS
VL: DIVMTQSHKFMSTSVGDRVSITCKASQNVGANVAWYQQKPGQSPKALIYSASYRYSGVPDRFTGSGSGTDFTLTISNVQSEDLAEYFCQQYNSYPYTSGGGTKLEIKR
For B1, the Kd [1] was 11 nM, the Kd [2] was 10 nM and the Kd [3] was 10 nM. It also gave a Kd [4] of 11 nM.

B2: 4H2 full-length antibody (mouse variable region-human IgG1 constant region chimera) (antibody, V domains shown)
VH: EVQVVESGGGLVQPGGSRKLSCAASGFTFSSYGMSWVRQTPDKRLEWVATISSGGSYTYYPDSVKGRFTISRDNAKNNLYLQMSSLKSEDTAMYYCARDGYGNYVGMDYWGQGTSVTVSS
VL: DIVLTQSPAIMSASPGEKVTITCSASSSVSYMHWFQQKPGTSPKLWIYSTSNLASGVPARFSGSGSGTSYSLTISSMEAEDAATYYCQQWSSNSYTFGGGTKLEIKR
Binder B2 has a Kd [1] of 63 nM, a Kd [2] of 9 nM and a Kd [3] of 9 nM. It also gave a Kd [4] of 63 nM.

B3: 3A3 full-length antibody (mouse variable region-human IgG1 constant region chimera) (antibody, V domains shown)
VH: QVQLQQSGAELLKPGASVKLSCTASGFNIKDTYIHWLKQRPEQGLEWIGRIGPAIGNTIYAPKFQGKATITTDTSSNTAYLQLSSLTSEDTAVYYCARYYGSSYYYFDYWGQGTTLTVSS
VL: DIVMTQSAPSVPVTPGESVSISCRSSKSLLHSNGNTYLYWFLQRPGQSPQLLIYRMSNLASGVPDRFSGSGSGTAFTLRISRVEAEDVGVYYCMQYLEYPLTFGAGTKLELKR
In the case of B3, the Kd (HexaPro E1031R) is reported as 1.5 nM, the kon (HexaPro E1031R) is reported as 2.88e+06 M⁻¹ s⁻¹ and the “IC50 of pseudovirus entry (FIG. 3A)” value [5] is reported as 25.6 µg/mL. For the same binder, the “IC50 of pseudovirus infection (FIG. 3A)” value [5] was ~173 nM, the “IC50 of pseudovirus entry (FIG. 3A)” value [6] was 2.05 µg/mL and the “IC50 of pseudovirus infection (FIG. 3A)” value [6] was ~14 nM. For the same binder, the “Pseudovirus IC50” value [7] was 212 nM, the “Pseudovirus IC50” value [8] was 94 nM and the “Pseudovirus IC50” value [9] was 119 nM. It also gave a Kd [2] of 7.9 nM and a Kd [3] of 8.4 nM.

B4: 3A3 Fab (mouse Fab fragment) (Fab, V domains shown)
VH: QVQLQQSGAELLKPGASVKLSCTASGFNIKDTYIHWLKQRPEQGLEWIGRIGPAIGNTIYAPKFQGKATITTDTSSNTAYLQLSSLTSEDTAVYYCARYYGSSYYYFDYWGQGTTLTVSS
VL: DIVMTQSAPSVPVTPGESVSISCRSSKSLLHSNGNTYLYWFLQRPGQSPQLLIYRMSNLASGVPDRFSGSGSGTAFTLRISRVEAEDVGVYYCMQYLEYPLTFGAGTKLELKR
B4 gave a Kd [10] of ~2.5 nM, a koff [10] of 0.005 s⁻¹ and a kon [10] of ~2e+06 M⁻¹ s⁻¹. For the same binder, the Kd [11] was 2.2 nM and 3.2 nM, the Kd [12] was 3.2 nM and the Kd [13] was 2.2 nM. For the same binder, the koff [13] was 0.0049 s⁻¹, the kon [13] was 2.3e+06 M⁻¹ s⁻¹ and the Kd [14] was 3.6 nM. For the same binder, the koff [14] was 0.0046 s⁻¹ and the kon [14] was 1.3e+06 M⁻¹ s⁻¹.

B5: combination of AM3A3-5 heavy chain with unmodified hu3A3 (WT; ven3A3) light chain (antibody, V domains shown)
VH: QVQLVQSGAEVLKPGASVKLSCKASGFNIKDTYIHWLKQAPGQRLEWIGRIGPAIGNTIYAPKFQGKATITTDTSASTAYLELSSLRSEDTAVYYCARYYGYAYYYFDYWGQGTTVTVSS
VL: DIVMTQSPLSVPVTPGEPVSISCRSSKSLLHSNGNTYLYWFLQKPGQSPQLLIYRMSNLASGVPDRFSGSGSGTAFTLKISRVEAEDVGVYYCMQYLEYPLTFGAGTKLEIK
B5 was tested, and the “Fold improvement over WT/WT” value [15] was 0.5 fold.

B6: combination of AM3A3-3 heavy chain with AM3A3-5 light chain (antibody, V domains shown)
VH: QVQLVQSGADVLKPGASVKLSCKASGFNIKNTYIHWLKQAPGQRLEWIGRIGPAIGNTIYAPKFQGKATITTDTSASTAYLELSSLRSEDTAVYYCARYYGSSYYYLDYWGQGTTVTVSS
VL: DIVMTQSPLSVPVTPGEPVSISCRSSKSLLHSNGNTYLYWFLQKPGQSPQLLIARMSTLASGVPDRFSGSGSGTAFTLKISRVEAEDVGVYYCMQYLEYPLTFGAGTKLEIK
B6 was tested, and the “Fold improvement over WT/WT” value [15] was 95.6 fold.

B7: AM3A3-3 (affinity matured humanized 3A3) (antibody, V domains shown)
VH: QVQLVQSGADVLKPGASVKLSCKASGFNIKNTYIHWLKQAPGQRLEWIGRIGPAIGNTIYAPKFQGKATITTDTSASTAYLELSSLRSEDTAVYYCARYYGSSYYYLDYWGQGTTVTVSS
VL: DIVMTQSPLSVPVTPGEPVSISCRSSKSLHHSNGNTYLYWFLQKPGQSPQLLIYRMSNLASGVPDRFSGSGNGTAFTLKISRVEAEDVGVYYCMQYLEYPLTFDAGTKLEIK
B7 was tested, and the “Fold improvement over WT/WT” value [15] was 63.3 fold.

B8: combination of unmodified hu3A3 (WT; ven3A3) heavy chain with AM3A3-3 light chain (antibody, V domains shown)
VH: QVQLVQSGAEVLKPGASVKLSCKASGFNIKDTYIHWLKQAPGQRLEWIGRIGPAIGNTIYAPKFQGKATITTDTSASTAYLELSSLRSEDTAVYYCARYYGSSYYYFDYWGQGTTVTVSS
VL: DIVMTQSPLSVPVTPGEPVSISCRSSKSLHHSNGNTYLYWFLQKPGQSPQLLIYRMSNLASGVPDRFSGSGNGTAFTLKISRVEAEDVGVYYCMQYLEYPLTFDAGTKLEIK
B8 was tested, and the “Fold improvement over WT/WT” value [15] was 13.7 fold.

B9: combination of AM3A3-3 heavy chain with unmodified hu3A3 (WT; ven3A3) light chain (antibody, V domains shown)
VH: QVQLVQSGADVLKPGASVKLSCKASGFNIKNTYIHWLKQAPGQRLEWIGRIGPAIGNTIYAPKFQGKATITTDTSASTAYLELSSLRSEDTAVYYCARYYGSSYYYLDYWGQGTTVTVSS
VL: DIVMTQSPLSVPVTPGEPVSISCRSSKSLLHSNGNTYLYWFLQKPGQSPQLLIYRMSNLASGVPDRFSGSGSGTAFTLKISRVEAEDVGVYYCMQYLEYPLTFGAGTKLEIK
For B9, the “Fold improvement over WT/WT” value [15] was 11.6 fold.

B10: humanized 3A3 with ven3A3VH and ven3A3VL (antibody, V domains shown)
VH: QVQLVQSGAEVLKPGASVKLSCKASGFNIKDTYIHWLKQAPGQRLEWIGRIGPAIGNTIYAPKFQGKATITTDTSASTAYLELSSLRSEDTAVYYCARYYGSSYYYFDYWGQGTTVTVSS
VL: DIVMTQSPLSVPVTPGEPVSISCRSSKSLLHSNGNTYLYWFLQKPGQSPQLLIYRMSNLASGVPDRFSGSGSGTAFTLKISRVEAEDVGVYYCMQYLEYPLTFGAGTKLEIK
In the case of B10, the “Fold improvement over WT/WT” value [15] is reported as 1 fold.

B11: AM3A3-5 (affinity matured humanized 3A3) (antibody, V domains shown)
VH: QVQLVQSGAEVLKPGASVKLSCKASGFNIKDTYIHWLKQAPGQRLEWIGRIGPAIGNTIYAPKFQGKATITTDTSASTAYLELSSLRSEDTAVYYCARYYGYAYYYFDYWGQGTTVTVSS
VL: DIVMTQSPLSVPVTPGEPVSISCRSSKSLLHSNGNTYLYWFLQKPGQSPQLLIARMSTLASGVPDRFSGSGSGTAFTLKISRVEAEDVGVYYCMQYLEYPLTFGAGTKLEIK
In the case of B11, the “Fold improvement over WT/WT” value [15] is reported as 50.5 fold.

B12: combination of unmodified hu3A3 (WT; ven3A3) heavy chain with AM3A3-5 light chain (antibody, V domains shown)
VH: QVQLVQSGAEVLKPGASVKLSCKASGFNIKDTYIHWLKQAPGQRLEWIGRIGPAIGNTIYAPKFQGKATITTDTSASTAYLELSSLRSEDTAVYYCARYYGSSYYYFDYWGQGTTVTVSS
VL: DIVMTQSPLSVPVTPGEPVSISCRSSKSLLHSNGNTYLYWFLQKPGQSPQLLIARMSTLASGVPDRFSGSGSGTAFTLKISRVEAEDVGVYYCMQYLEYPLTFGAGTKLEIK
B12 was tested, and the “Fold improvement over WT/WT” value [15] was 63.7 fold.

B13: combination of AM3A3-5 heavy chain with AM3A3-3 light chain (antibody, V domains shown)
VH: QVQLVQSGAEVLKPGASVKLSCKASGFNIKDTYIHWLKQAPGQRLEWIGRIGPAIGNTIYAPKFQGKATITTDTSASTAYLELSSLRSEDTAVYYCARYYGYAYYYFDYWGQGTTVTVSS
VL: DIVMTQSPLSVPVTPGEPVSISCRSSKSLHHSNGNTYLYWFLQKPGQSPQLLIYRMSNLASGVPDRFSGSGNGTAFTLKISRVEAEDVGVYYCMQYLEYPLTFDAGTKLEIK
B13 was tested, and the “Fold improvement over WT/WT” value [15] was 4.3 fold.
